Experiment [1] has as its target human airway smooth muscle cell mannose receptor (huASMC-MR) (human) (UniProt Q9UBG0). Briefly: flow cytometry (cell sorting) of bovine airway smooth muscle cells transfected with full-length huASMC-MR cDNA plasmid; vector control 57/1718 cells. For orientation: In flow cytometry, cells or beads pass a laser one at a time.
Experiment [2] addresses bovine airway smooth muscle cell mannose receptor (bovine). Briefly: cell-based or functional assay.

As to “FITC-ManBSA (FITC-labelled mannosylated bovine serum albumin) (from UniProt P02769 25-607)”, the percent of cells with increased fluorescence intensity in experiment [1] was 61%.
“b hexosaminidase A (human placental β-hexosaminidase, Sigma) (from UniProt P06865 89-529; P07686 122-556) (enzyme)” yielded a b hexosaminidase-induced mitogenesis in bovine ASMC, inhibition by antisense huASMC-MR morpholino oligonucleotides (5 µM) in experiment [2] of 37%.

These data come from patent US20050085442A1.
